Target: His6-tagged Casp8p41 protein
Test: SPR; Casp8p41 immobilised on a CM5 chip (6000-7000 RU); BCL2 or phospho-S70-BCL2 flowed over; 25°C; 150 mM NaCl, 0.05 mM EDTA, 0.005% Polysorbate 20, 10 mM Hepes pH 7.4; steady state affinity fit, 1:1 model; Biacore T200

Substance | Kd [nM]
BCL2ΔTM-His6 (domain or fragment) | 260
phospho-S70-BCL2 (domain or fragment) | 40

Reference: paper PMC7595626
